According to publication PMC2919055 (Proteins, 2010):
Values joined by “and” are separate entries in the source; they are usually repeats but may differ in a detail not shown here. Equal entries are not always repeated. *: point of attachment. Carboxymethyl = O=C(O)C*

Target: the molecule itself
Assay: cross-linking

B1: C-MBD of A. fulgidus CopA with carboxymethylated cysteines (domain or fragment, Archaeoglobus fulgidus, UniProt O29777 736-804, looked up)
chain: GDSVEKIVLELSGLSC(Carboxymethyl)HHC(Carboxymethyl)VARVKKALEEAGAKVEKVDLNEAVVAGNKEDVDKYIKAVEAAGYQAKLRS
stoichiometry N: 2 and 4
